Results published in PMC9492657, “Metabolic pathway assembly using docking domains from type I cis-AT polyketide synthases” (Nature Communications, 2022).

Legend:
[1] = molecular target: D3 NDD-His-tag (N-terminal docking domain of DEBS2, 6-deoxyerythronolide B synthase) (UniProt Q03132); assay: BLI; GatorPrime; NDD-His-tag (100 ug/mL in PBS) immobilised on a Ni-NTA biosensor; CDD in solution at variable concentrations in 1x kinetic buffer (PBS pH 7.4, 0.1% BSA, 0.05% Tween 20); 1:1 global model; three repeats
[2] = molecular target: D5 NDD-His-tag, biotinylated (N-terminal docking domain of DEBS3, 6-deoxyerythronolide B synthase) (UniProt Q03133); assay: BLI; Octet RED96E; biotinylated D5 NDD (100 ug/mL in PBS) immobilised on a streptavidin (SA) biosensor; CDD in solution at variable concentrations in 1x kinetic buffer (PBS pH 7.4, 0.1% BSA, 0.05% Tween 20); 1:1 global model; three repeats
[3] = molecular target: T1, R5 NDD-His-tag (N-terminal docking domain of RapB, rapamycin polyketide synthase) (Streptomyces rapamycinicus); assay: BLI; GatorPrime; NDD-His-tag (100 ug/mL in PBS) immobilised on a Ni-NTA biosensor; CDD in solution at variable concentrations in 1x kinetic buffer (PBS pH 7.4, 0.1% BSA, 0.05% Tween 20); 1:1 global model; three repeats; conditions: both partners purified
T1 chain: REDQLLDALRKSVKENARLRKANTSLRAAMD

Flag-tag-D2 CDD (C-terminal docking domain of DEBS1, 6-deoxyerythronolide B synthase) (from UniProt Q03131 1-3491) (domain or fragment)
Kd [1]: 14600 nM

Flag-tag-D4 CDD (C-terminal docking domain of DEBS2, 6-deoxyerythronolide B synthase) (from UniProt Q03132 1-3567) (domain or fragment)
Kd [2]: 280 nM

B1: Flag-tag-R4 CDD (C-terminal docking domain of RapA, rapamycin polyketide synthase) (domain or fragment)
chain: FAPAEPEPRLHEQELRRALAGISIDKFREAGVLDTLLRLAAMEGLAVPKPDSESDDEAFVDEMDADALIKHVLEEER
Kd [3]: 340 ± 30 nM
